Results as given in US11471509B2, “Compositions and methods relating to myomaker-induced muscle cell fusion” (The Board of Regents of the University of Texas System, priority 2013, dated 2022).

Tests used:
[1] = system: C2C12 myoblasts; assay: Retroviral over-expression in C2C12 cells, myoblast fusion; format: cell-based; conditions: 4 days of differentiation
[2] = system: 10T1/2 fibroblasts mixed with C2C12 cells; assay: Cell mixing: infected 10T1/2 fibroblasts with C2C12 myoblasts; format: cell-based
Experimental: WT myoblasts were mixed with either Myomaker+/− or Myomaker−/− myoblasts at equal ratios (approximately 1×10^5 cells per genotype), plated on a well of a laminin coated 12-well plate, and induced to differentiate the next day. 10T1/2 fibroblasts were infected with either GFP- and empty-retrovirus or GFP- and Myomaker-retrovirus for 18 h. After infection, cells were washed multiple times and then trypsinized, and mixed with C2C12 myoblasts at a 1:1 ratio (1×10^5 of each cell type) and plated on one well of a 6 well plate in differentiation media. GFP and myosin expression was analyzed 4 days after differentiation. […]
Each histological analysis of embryonic skeletal muscle was performed on four samples per genotype. The differentiation index was calculated as the percentage of nuclei in myosin-positive cells. The fusion index was calculated as the percentage of nuclei contained in myosin-positive myotubes. […] To quantitate fusion between WT myoblasts and either Myomaker+/− or Myomaker−/− myoblasts, the inventors calculated the percentage of LacZ+ myotubes containing ≥3 nuclei. To quantitate fusion between fibroblasts and myoblasts, the inventors calculated the percentage of GFP+ myosin+ cells or the percentage of BrdU+ myotube nuclei. For each quantitation, at least 3 independent experiments were performed in duplicate and at least 6 random fields were imaged per sample. […]

| Molecule | myoblast fusion after forced expression [1] | fusion of infected fibroblasts with C2C12 cells ([2]; 10T1/2 fibroblasts infected with GFP and Myomaker virus, mixed 1:1 with C2C12, 4 days differentiation) | fusion of fibroblasts in the absence of myoblasts ([2]; fibroblasts expressing Myomaker, no myoblasts) |
| --- | --- | --- | --- |
| Myomaker: muscle-specific membrane protein of 221 residues, expressed from pBabe-X retrovirus (protein, UniProt Q9D1N4 1-221, looked up) Protein myomaker: MGTVVAKLLLPTLSSLAFLPTVSIATKRRFYMEAMVYLFTMFFVAFSHACDGPGLSVLCFMRRDILEYFSIYGTALSMWVSLMALADFDEPQRSTFTMLGVLTIAVRTFHDRWGYGVYSGPIGTATLIIAVKWLKKMKEKKGLYPDKSIYTQQIGPGLCFGALALMLRFFFEEWDYTYVHSFYHCALAMSFVLLLPKVNKKAGNAGAPAKLTFSTLCCTCV | dramatic increase in fusion | robustly fused with C2C12 cells | not sufficient to induce fusion of fibroblasts |
| Tmem8b: closest relative of Myomaker/Tmem8c, not muscle-specific (protein, UniProt B1AWJ5 1-472, looked up) Transmembrane protein 8B: MNMPQSLGTQPLPPEPPSLGTPIEGSGAIAPTEHCWPVRPTLRNELDTFSVHFYIFFGPSVALPPERPAVFALRLLPVLDSGGVLSLELQLNASSLRQENVTVFGCLTHEVPLSLGDAAVTCSKESLAGFLLSVSATSRVARLRIPFPQTGTWFLTLRSLCGVGPRFVRCRNATAEVRLRTFLSPCVDDCGPYGQCKLLRTHNYLYAACECKAGWRGWGCTDSADALTYGFQLLSTLLLCLSNLMFLPPVVLAIRSRYVLEAAVYTFTMFFSTFYHACDQPGIVVFCIMDYDVLQFCDFLGSLMSVWVTVIAMARLQPVIKQVLYLLGAMLLSMALQLDRHGLWNLLGPSLFALGILATAWTVRSVRRRHCYPPTWRRWLFYLCPGSLIAGSAVLLYAFVETRDNYFYIHSIWHMLIAGSVGFLLPPRAKTDRRVPSGARARGCGYQLCINEQEELGLVGPGGTTVSSICVS | did not promote fusion | – | – |
